Article PMC6555819, “Comprehensive study of nuclear receptor DNA binding provides a revised framework for understanding receptor specificity”

Each binder was assayed against VDR:RXRa (Homo sapiens, UniProt P11473;P19793 full;full) (assay: no ligand; PBM; 270 nM : 90 nM RXRa; PBS pH 7.4, 2% milk, 0.02% Triton X-100, 1 mM DTT, BSA, 0.4 mg/ml salmon testes DNA). Conditions: tags: His kept;His cleaved; copies: 1;1; label: surface-attached array probe.
Method in brief: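 Scanned fluorescence from custom Agilent 4×180K protein-binding microarrays was regression-normalized. Binding z-scores use random background probes as reference. Ligand-free nuclear receptor dimers were incubated on the arrays for 1 h and detected with antibodies against each partner (one per run).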

Chain of VDR:RXRa (P11473 whole entry, chain 1 of 2): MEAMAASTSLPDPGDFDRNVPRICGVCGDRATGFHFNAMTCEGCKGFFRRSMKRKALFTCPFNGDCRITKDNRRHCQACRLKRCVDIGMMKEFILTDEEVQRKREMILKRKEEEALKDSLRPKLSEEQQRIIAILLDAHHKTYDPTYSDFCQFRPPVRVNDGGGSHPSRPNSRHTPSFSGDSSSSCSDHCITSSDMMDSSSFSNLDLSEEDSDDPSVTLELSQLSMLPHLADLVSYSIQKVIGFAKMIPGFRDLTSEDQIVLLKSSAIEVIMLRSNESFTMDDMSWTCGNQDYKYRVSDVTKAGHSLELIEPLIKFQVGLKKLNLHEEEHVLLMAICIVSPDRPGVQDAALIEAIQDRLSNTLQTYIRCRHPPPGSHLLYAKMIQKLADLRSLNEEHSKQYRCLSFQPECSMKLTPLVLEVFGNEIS
Chain of VDR:RXRa (P19793 whole entry, chain 2 of 2): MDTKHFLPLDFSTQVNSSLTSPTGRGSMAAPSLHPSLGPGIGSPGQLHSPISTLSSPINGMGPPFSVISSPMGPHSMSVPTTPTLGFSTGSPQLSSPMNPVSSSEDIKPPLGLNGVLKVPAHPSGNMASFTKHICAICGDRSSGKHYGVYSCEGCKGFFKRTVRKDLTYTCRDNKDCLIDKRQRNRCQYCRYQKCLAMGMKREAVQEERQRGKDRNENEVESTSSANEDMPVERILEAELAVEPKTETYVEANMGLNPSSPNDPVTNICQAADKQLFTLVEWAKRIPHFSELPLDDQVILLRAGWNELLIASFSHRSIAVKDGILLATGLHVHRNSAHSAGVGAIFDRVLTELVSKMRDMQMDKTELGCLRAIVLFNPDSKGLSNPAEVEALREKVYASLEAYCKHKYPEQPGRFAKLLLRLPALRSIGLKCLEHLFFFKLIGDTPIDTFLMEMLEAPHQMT

Binder | binding signal
NRC3_wobSeed86_DR3_T8G_o1 (dsDNA) DNA 1: GCGCTGCGAGGTCAGGTTGGTCAGCTAACGGGTACGGCGATTGACAGCGTAGAATGAAGG DNA 2: CCTTCATTCTACGCTGTCAATCGCCGTACCCGTTAGCTGACCAACCTGACCTCGCAGCGC | 3.78 PBM z-score against 500 random probes
NRC3_wobSeed74_DR3_G16C_o1 (dsDNA) DNA 1: GCTCTAGTTGGTCACCGAGGTCACACACGACGGGTAGCGATTGACAGCGTAGAATGAAGG DNA 2: CCTTCATTCTACGCTGTCAATCGCTACCCGTCGTGTGTGACCTCGGTGACCAACTAGAGC | 6.63 PBM z-score against 500 random probes
NRC3_wobSeed74_DR3_G20T_o1 (dsDNA) DNA 1: GCTCTAGTTGGTCACGGAGTTCACACACGACGGGTAGCGATTGACAGCGTAGAATGAAGG DNA 2: CCTTCATTCTACGCTGTCAATCGCTACCCGTCGTGTGTGAACTCCGTGACCAACTAGAGC | 6.57 PBM z-score against 500 random probes
NRC3_wobSeed74_DR3_A14C_o1 (dsDNA) DNA 1: GCTCTAGTTGGTCCCGGAGGTCACACACGACGGGTAGCGATTGACAGCGTAGAATGAAGG DNA 2: CCTTCATTCTACGCTGTCAATCGCTACCCGTCGTGTGTGACCTCCGGGACCAACTAGAGC | 3.63 PBM z-score against 500 random probes
NRC3_wobSeed82_DR3_T21G_o1 (dsDNA) DNA 1: GCATCGAAAGGTCGACGAGGGGAGTATACACCGTTTGCGATTGACAGCGTAGAATGAAGG DNA 2: CCTTCATTCTACGCTGTCAATCGCAAACGGTGTATACTCCCCTCGTCGACCTTTCGATGC | 3.65 PBM z-score against 500 random probes
NRC3_wobSeed41_DR1_C24G_o1 (dsDNA) DNA 1: GCATATGTAGGTTAAGGGTCATTGAGGTTGGTTCGCGCGATTGACAGCGTAGAATGAAGG DNA 2: CCTTCATTCTACGCTGTCAATCGCGCGAACCAACCTCAATGACCCTTAACCTACATATGC | 6.5 PBM z-score against 500 random probes
NRC3_wobSeed94_DR3_A17G_o1 (dsDNA) DNA 1: GCCTACCAAGGTGAACGAGGTCGTTGATTACTATTCGCGATTGACAGCGTAGAATGAAGG DNA 2: CCTTCATTCTACGCTGTCAATCGCGAATAGTAATCAACGACCTCGTTCACCTTGGTAGGC | 6.62 PBM z-score against 500 random probes
NRC3_wobSeed72_DR2_A6C_o1 (dsDNA) DNA 1: GCTCGCGTAGGTTACGGGGGCATTCAGGGATGAAGAGCGATTGACAGCGTAGAATGAAGG DNA 2: CCTTCATTCTACGCTGTCAATCGCTCTTCATCCCTGAATGCCCCCGTAACCTACGCGAGC | 3.92 PBM z-score against 500 random probes
NRC3_wobSeed95_DR3_G22T_o1 (dsDNA) DNA 1: GCAGAACGAGGGCAATGAGTTTATAGCACGGGTGGCGCGATTGACAGCGTAGAATGAAGG DNA 2: CCTTCATTCTACGCTGTCAATCGCGCCACCCGTGCTATAAACTCATTGCCCTCGTTCTGC | 6.73 PBM z-score against 500 random probes
NRC3_wobSeed95_DR3_A9G_o1 (dsDNA) DNA 1: GCAGAACGGGGGCAATGAGTTGATAGCACGGGTGGCGCGATTGACAGCGTAGAATGAAGG DNA 2: CCTTCATTCTACGCTGTCAATCGCGCCACCCGTGCTATCAACTCATTGCCCCCGTTCTGC | 6.59 PBM z-score against 500 random probes
NRC3_wobSeed98_DR4_T12C_o1 (dsDNA) DNA 1: GCACTAGTTGGCCAGCTGAGGTCACACACAATTCGGGCGATTGACAGCGTAGAATGAAGG DNA 2: CCTTCATTCTACGCTGTCAATCGCCCGAATTGTGTGTGACCTCAGCTGGCCAACTAGTGC | 3.6 PBM z-score against 500 random probes
NRC3_wobSeed119_DR4_C7A_o1 (dsDNA) DNA 1: GCGGAAAGAGGGCATTCGAGTTGATAGCATGGCGATGCGATTGACAGCGTAGAATGAAGG DNA 2: CCTTCATTCTACGCTGTCAATCGCATCGCCATGCTATCAACTCGAATGCCCTCTTTCCGC | 4.08 PBM z-score against 500 random probes
NRC3_wobSeed66_DR2_o1 (dsDNA) DNA 1: GCAATACAGGGTCACTAGGCCAGAGTAGGTACGAATGCGATTGACAGCGTAGAATGAAGG DNA 2: CCTTCATTCTACGCTGTCAATCGCATTCGTACCTACTCTGGCCTAGTGACCCTGTATTGC | 4.15 PBM z-score against 500 random probes
NRC3_wobSeed66_DR2_G9A_o1 (dsDNA) DNA 1: GCAATACAAGGTCACTAGGCCAGAGTAGGTACGAATGCGATTGACAGCGTAGAATGAAGG DNA 2: CCTTCATTCTACGCTGTCAATCGCATTCGTACCTACTCTGGCCTAGTGACCTTGTATTGC | 4.1 PBM z-score against 500 random probes
NRC3_wobSeed2_DR0_A22T_o1 (dsDNA) DNA 1: GCCCTAGTTGGTCAAGGTCACTCACGCTATAGGTACGCGATTGACAGCGTAGAATGAAGG DNA 2: CCTTCATTCTACGCTGTCAATCGCGTACCTATAGCGTGAGTGACCTTGACCAACTAGGGC | 3.83 PBM z-score against 500 random probes
NRC3_wobSeed22_DR0_T25C_o1 (dsDNA) DNA 1: GCTTACCAAGGTGAAGGTCGTTGACCCCTCTGTAGAGCGATTGACAGCGTAGAATGAAGG DNA 2: CCTTCATTCTACGCTGTCAATCGCTCTACAGAGGGGTCAACGACCTTCACCTTGGTAAGC | 4.04 PBM z-score against 500 random probes
NRC3_wobSeed92_DR3_A20T_o1 (dsDNA) DNA 1: GCAGAATGAGGTTATTAAGTTCAGGGAATTGCGGTCGCGATTGACAGCGTAGAATGAAGG DNA 2: CCTTCATTCTACGCTGTCAATCGCGACCGCAATTCCCTGAACTTAATAACCTCATTCTGC | 6.9 PBM z-score against 500 random probes

Binder | binding signal
NRC3_wobSeed92_DR3_A20G_o1 (dsDNA) DNA 1: GCAGAATGAGGTTATTAAGGTCAGGGAATTGCGGTCGCGATTGACAGCGTAGAATGAAGG DNA 2: CCTTCATTCTACGCTGTCAATCGCGACCGCAATTCCCTGACCTTAATAACCTCATTCTGC | 6.76 PBM z-score against 500 random probes
NRC3_wobSeed61_DR2_T24G_o1 (dsDNA) DNA 1: GCCGTCCAAGGTCAGCAGGTCAGGGAAAGCGACGTGGCGATTGACAGCGTAGAATGAAGG DNA 2: CCTTCATTCTACGCTGTCAATCGCCACGTCGCTTTCCCTGACCTGCTGACCTTGGACGGC | 4.03 PBM z-score against 500 random probes
NRC3_wobSeed61_DR2_G4C_o1 (dsDNA) DNA 1: GCCCTCCAAGGTCAGCAGGTCAGTGAAAGCGACGTGGCGATTGACAGCGTAGAATGAAGG DNA 2: CCTTCATTCTACGCTGTCAATCGCCACGTCGCTTTCACTGACCTGCTGACCTTGGAGGGC | 3.8 PBM z-score against 500 random probes
NRC3_wobSeed61_DR2_G25A_o1 (dsDNA) DNA 1: GCCGTCCAAGGTCAGCAGGTCAGTAAAAGCGACGTGGCGATTGACAGCGTAGAATGAAGG DNA 2: CCTTCATTCTACGCTGTCAATCGCCACGTCGCTTTTACTGACCTGCTGACCTTGGACGGC | 4 PBM z-score against 500 random probes
NRC3_wobSeed61_DR2_o1 (dsDNA) DNA 1: GCCGTCCAAGGTCAGCAGGTCAGTGAAAGCGACGTGGCGATTGACAGCGTAGAATGAAGG DNA 2: CCTTCATTCTACGCTGTCAATCGCCACGTCGCTTTCACTGACCTGCTGACCTTGGACGGC | 3.97 PBM z-score against 500 random probes
NRC3_wobSeed21_DR0_T5A_o1 (dsDNA) DNA 1: GCCGACAAAGTTCAAGGTAACGTAACAGAAAGCAGCGCGATTGACAGCGTAGAATGAAGG DNA 2: CCTTCATTCTACGCTGTCAATCGCGCTGCTTTCTGTTACGTTACCTTGAACTTTGTCGGC | 3.74 PBM z-score against 500 random probes
NRC3_wobSeed50_DR2_G7A_o1 (dsDNA) DNA 1: GCCCTAATTGGTCAGGAGGTCACACACCGGATATGAGCGATTGACAGCGTAGAATGAAGG DNA 2: CCTTCATTCTACGCTGTCAATCGCTCATATCCGGTGTGTGACCTCCTGACCAATTAGGGC | 3.96 PBM z-score against 500 random probes
NRC3_wobSeed122_DR5_C28A_o1 (dsDNA) DNA 1: GCGCTAGTTGGTCAGTAAAAGGTCACAAACCGGTCGGCGATTGACAGCGTAGAATGAAGG DNA 2: CCTTCATTCTACGCTGTCAATCGCCGACCGGTTTGTGACCTTTTACTGACCAACTAGCGC | 3.68 PBM z-score against 500 random probes
NRC3_wobSeed101_DR4_o1 (dsDNA) DNA 1: GCCCTTACGGGTCACTCCAGGTTATAGCATCGGAGTGCGATTGACAGCGTAGAATGAAGG DNA 2: CCTTCATTCTACGCTGTCAATCGCACTCCGATGCTATAACCTGGAGTGACCCGTAAGGGC | 4.06 PBM z-score against 500 random probes
NRC3_wobSeed133_DR5_G21T_o1 (dsDNA) DNA 1: GCCGTCCAAGGTCAATGCTATGTCAGTGAAAGCATTGCGATTGACAGCGTAGAATGAAGG DNA 2: CCTTCATTCTACGCTGTCAATCGCAATGCTTTCACTGACATAGCATTGACCTTGGACGGC | 3.76 PBM z-score against 500 random probes
NRC3_wobSeed69_DR2_T5A_o1 (dsDNA) DNA 1: GCAGACAAAGTTCACTAGGTAACGTAAGATTCAGCTGCGATTGACAGCGTAGAATGAAGG DNA 2: CCTTCATTCTACGCTGTCAATCGCAGCTGAATCTTACGTTACCTAGTGAACTTTGTCTGC | 3.85 PBM z-score against 500 random probes
NRC3_wobSeed27_DR1_G7C_o1 (dsDNA) DNA 1: GCACTCCGAGGACAAAGGTCAGAGCTACGCCAGTGAGCGATTGACAGCGTAGAATGAAGG DNA 2: CCTTCATTCTACGCTGTCAATCGCTCACTGGCGTAGCTCTGACCTTTGTCCTCGGAGTGC | 3.7 PBM z-score against 500 random probes
NRC3_wobSeed90_DR3_A28C_o1 (dsDNA) DNA 1: GCCATACAGGGTCAGCTAGGCCAGAGTCGGGACGGCGCGATTGACAGCGTAGAATGAAGG DNA 2: CCTTCATTCTACGCTGTCAATCGCGCCGTCCCGACTCTGGCCTAGCTGACCCTGTATGGC | 3.58 PBM z-score against 500 random probes
NRC3_wobSeed124_DR5_C17T_o1 (dsDNA) DNA 1: GCCCTACTGGGCCATTTAGAGGTCATTGATCATATGGCGATTGACAGCGTAGAATGAAGG DNA 2: CCTTCATTCTACGCTGTCAATCGCCATATGATCAATGACCTCTAAATGGCCCAGTAGGGC | 3.9 PBM z-score against 500 random probes
NRC3_wobSeed124_DR5_A29G_o1 (dsDNA) DNA 1: GCCCTACTGGGCCATTCAGAGGTCATTGGTCATATGGCGATTGACAGCGTAGAATGAAGG DNA 2: CCTTCATTCTACGCTGTCAATCGCCATATGACCAATGACCTCTGAATGGCCCAGTAGGGC | 3.87 PBM z-score against 500 random probes
NRC3_wobSeed65_DR2_C16G_o1 (dsDNA) DNA 1: GCATATGTAGGTTATGGGGTCATTCAGTTTGCGCATGCGATTGACAGCGTAGAATGAAGG DNA 2: CCTTCATTCTACGCTGTCAATCGCATGCGCAAACTGAATGACCCCATAACCTACATATGC | 6.73 PBM z-score against 500 random probes
